Tested on: peptide library, one residue held at a place counted from the Y acceptor
Experiment: relative phosphorylation of the sub-library (ratio to the mean residue at this position); higher = residue favoured
Method in brief: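 Purified recombinant kinases were incubated for 90 min in 384-well plates with biotinylated Tyr-centred peptide library mixtures, each fixing one residue at one position from −5 to +5, plus 50 μM ATP with γ-32P-ATP. Peptides were captured on streptavidin membranes, rinsed and quantified by phosphorimaging and ImageQuant. Intensities were normalized per position by the sum of the 18 (or 16, Ser/Thr-free library) randomized residues and multiplied by that number. Values give phosphorylation relative to the mean randomized residue.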

Sequence of JAK1, construct: aa866-end, human (P23458 866-1154, looked up): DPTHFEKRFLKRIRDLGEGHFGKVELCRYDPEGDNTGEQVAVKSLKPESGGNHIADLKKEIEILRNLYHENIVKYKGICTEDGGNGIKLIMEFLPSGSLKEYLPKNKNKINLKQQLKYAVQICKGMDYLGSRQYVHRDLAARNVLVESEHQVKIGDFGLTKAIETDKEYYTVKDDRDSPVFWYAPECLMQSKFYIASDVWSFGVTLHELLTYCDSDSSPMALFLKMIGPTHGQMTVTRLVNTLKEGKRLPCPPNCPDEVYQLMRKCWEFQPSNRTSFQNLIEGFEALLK
Sequence of KIT, construct: aa544-end, human (P10721 544-976, looked up): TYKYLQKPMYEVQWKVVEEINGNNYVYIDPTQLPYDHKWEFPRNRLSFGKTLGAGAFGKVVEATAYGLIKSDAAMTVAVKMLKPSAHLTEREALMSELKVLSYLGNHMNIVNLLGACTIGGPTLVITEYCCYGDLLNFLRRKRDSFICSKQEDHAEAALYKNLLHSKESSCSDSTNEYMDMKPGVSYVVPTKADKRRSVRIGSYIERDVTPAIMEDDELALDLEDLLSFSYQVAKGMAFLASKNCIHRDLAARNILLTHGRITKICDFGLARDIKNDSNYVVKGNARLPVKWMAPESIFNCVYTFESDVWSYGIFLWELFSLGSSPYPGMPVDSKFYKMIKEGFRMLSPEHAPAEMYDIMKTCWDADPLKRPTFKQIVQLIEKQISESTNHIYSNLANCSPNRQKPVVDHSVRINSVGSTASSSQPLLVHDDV
Sequence of JAK3, construct: aa795-end, human (P52333 795-1124, looked up): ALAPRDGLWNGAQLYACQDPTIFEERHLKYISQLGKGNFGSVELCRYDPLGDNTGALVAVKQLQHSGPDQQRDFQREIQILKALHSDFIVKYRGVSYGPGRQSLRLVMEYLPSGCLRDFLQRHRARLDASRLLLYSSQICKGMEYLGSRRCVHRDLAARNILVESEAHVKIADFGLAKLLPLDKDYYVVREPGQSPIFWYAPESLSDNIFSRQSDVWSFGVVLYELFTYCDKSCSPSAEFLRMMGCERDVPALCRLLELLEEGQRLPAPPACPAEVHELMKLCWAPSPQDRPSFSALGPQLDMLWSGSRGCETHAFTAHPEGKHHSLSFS

JAK1, construct: aa866-end, human (from UniProt P23458)
relative phosphorylation
Conditions | at +1 | at +2 | at +3 | at +4 | at +5 | at -1 | at -2 | at -3 | at -4 | at -5
A fixed | 0.719 | 1.02 | 0.75 | 0.954 | 1.06 | 1.36 | 1.03 | 1.03 | 1.2 | 1.05
D fixed | 0.171 | 0.329 | 0.239 | 0.618 | 0.655 | 0.907 | 0.905 | 0.919 | 0.963 | 0.916
E fixed | 0.237 | 0.402 | 0.195 | 0.79 | 0.649 | 1.08 | 0.81 | 0.891 | 1.02 | 0.871
F fixed | 2.15 | 0.807 | 1.02 | 1.08 | 1.09 | 1.11 | 0.81 | 1.1 | 1.23 | 1.03
G fixed | 0.385 | 0.788 | 0.879 | 1.19 | 1.19 | 1.44 | 1.21 | 1.11 | 1.19 | 1.16
H fixed | 0.87 | 0.545 | 0.714 | 1.05 | 0.906 | 0.847 | 0.915 | 0.905 | 0.788 | 0.931
I fixed | 2.1 | 0.695 | 2.37 | 0.834 | 0.784 | 1.24 | 0.941 | 0.795 | 0.861 | 1.04
K fixed | 0.286 | 1.88 | 0.713 | 1.25 | 1.16 | 0.364 | 0.824 | 0.732 | 0.851 | 1.01
L fixed | 2.04 | 0.871 | 2.13 | 0.875 | 0.886 | 1.24 | 1.04 | 1.15 | 1.12 | 1.09
M fixed | 2.06 | 0.911 | 1.35 | 1.11 | 0.897 | 1.17 | 1.03 | 1.09 | 0.983 | 1.07
N fixed | 0.289 | 1.04 | 0.752 | 0.882 | 0.923 | 0.749 | 1.05 | 1.02 | 0.784 | 0.914
P fixed | 0.371 | 1.55 | 0.755 | 0.89 | 1.41 | 1.63 | 1.13 | 1.41 | 1.33 | 1.24
Q fixed | 0.699 | 0.893 | 0.494 | 1.03 | 0.852 | 0.661 | 1.06 | 0.845 | 1.09 | 0.953
R fixed | 0.509 | 2.13 | 0.985 | 1.45 | 1.33 | 0.414 | 1.02 | 0.851 | 0.929 | 0.911
S fixed | 0.534 | 1.43 | 0.836 | 1.16 | 1.21 | 0.813 | 1.33 | 1.13 | 0.844 | 0.904
T fixed | 0.812 | 1.09 | 1.2 | 0.956 | 1.19 | 0.865 | 1.05 | 0.983 | 0.678 | 0.805
V fixed | 1.8 | 0.832 | 1.67 | 0.887 | 0.838 | 1.35 | 0.931 | 0.957 | 0.922 | 0.953
W fixed | 1.96 | 0.781 | 0.953 | 0.988 | 0.971 | 0.756 | 0.89 | 1.08 | 1.22 | 1.14
pThr fixed | 0.349 | 0.342 | 0.188 | 0.413 | 0.485 | 0.849 | 0.695 | 0.704 | 0.872 | 0.823
pTyr fixed | 0.608 | 0.384 | 0.271 | 0.735 | 0.608 | 2.64 | 0.751 | 0.934 | 0.929 | 0.925

JAK3, construct: aa795-end, human (from UniProt P52333)
relative phosphorylation
Conditions | at +1 | at +2 | at +3 | at +4 | at +5 | at -1 | at -2 | at -3 | at -4 | at -5
A fixed | 0.882 | 0.772 | 0.718 | 0.933 | 1.08 | 0.848 | 0.973 | 1.02 | 1.07 | 1.1
D fixed | 0.438 | 0.975 | 0.429 | 0.902 | 0.84 | 3 | 1.02 | 1.3 | 1.08 | 1.09
E fixed | 0.497 | 0.834 | 0.342 | 0.687 | 0.843 | 2.01 | 1.05 | 1.18 | 1.22 | 0.94
F fixed | 2.22 | 1.17 | 1.18 | 1.07 | 0.874 | 0.763 | 0.839 | 0.962 | 1.05 | 1.02
G fixed | 0.36 | 0.532 | 0.643 | 1.08 | 1.1 | 0.699 | 1.24 | 1.07 | 1.07 | 1.2
H fixed | 1.44 | 0.984 | 1.19 | 1.01 | 0.967 | 0.968 | 1.03 | 1.11 | 1.04 | 1.12
I fixed | 1.17 | 0.644 | 1.54 | 0.676 | 0.66 | 0.817 | 0.597 | 0.632 | 0.682 | 0.736
K fixed | 0.436 | 0.82 | 0.794 | 1.29 | 1.24 | 0.493 | 0.982 | 0.857 | 0.91 | 1.12
L fixed | 0.877 | 0.998 | 1.71 | 0.839 | 0.771 | 0.69 | 0.862 | 0.707 | 0.726 | 0.793
M fixed | 1.06 | 1.21 | 1.5 | 0.883 | 0.852 | 0.593 | 0.86 | 0.72 | 0.847 | 0.828
N fixed | 0.54 | 1.17 | 0.7 | 0.965 | 1.22 | 1.31 | 1.31 | 1.41 | 1.04 | 0.946
P fixed | 0.455 | 0.945 | 0.773 | 1.02 | 1.22 | 0.759 | 1.07 | 1.07 | 1.11 | 1.03
Q fixed | 1.04 | 1.02 | 0.883 | 1.22 | 1.13 | 0.874 | 1.31 | 1.15 | 1.11 | 0.971
R fixed | 0.665 | 0.876 | 1.03 | 1.3 | 1.46 | 0.55 | 1.1 | 1.01 | 1.15 | 1.14
S fixed | 0.697 | 0.848 | 0.916 | 1.11 | 1.4 | 0.831 | 1.22 | 1.21 | 1.07 | 1.05
T fixed | 0.73 | 0.902 | 1.15 | 0.972 | 0.959 | 0.935 | 0.989 | 1.07 | 0.839 | 0.973
V fixed | 1.65 | 0.807 | 1.2 | 0.819 | 0.716 | 0.842 | 0.671 | 0.72 | 0.7 | 0.77
W fixed | 2.27 | 2.25 | 1.37 | 1.31 | 1.03 | 0.791 | 1.09 | 1.1 | 1.19 | 1.19
pThr fixed | 0.626 | 1.2 | 0.391 | 0.528 | 0.682 | 2.23 | 1 | 1.16 | 1.01 | 0.871
pTyr fixed | 1.04 | 0.925 | 0.369 | 0.583 | 0.725 | 2.37 | 1.05 | 1.32 | 1.01 | 0.825

KIT, construct: aa544-end, human (from UniProt P10721)
relative phosphorylation
Conditions | at +1 | at +2 | at +3 | at +4 | at +5 | at -1 | at -2 | at -3 | at -4 | at -5
A fixed | 0.767 | 0.817 | 0.577 | 0.912 | 1.01 | 0.799 | 1.12 | 1.03 | 1.1 | 1.01
D fixed | 0.38 | 0.893 | 0.392 | 0.969 | 0.604 | 1.62 | 1.26 | 1.51 | 1.33 | 1.22
E fixed | 0.666 | 1.19 | 0.276 | 0.92 | 0.618 | 1.36 | 1.45 | 1.76 | 1.51 | 1.04
F fixed | 1.99 | 1.1 | 2.08 | 1.13 | 1.9 | 1.06 | 0.614 | 0.837 | 0.973 | 0.976
G fixed | 0.387 | 0.485 | 0.529 | 1.03 | 1.16 | 0.521 | 1.19 | 1.1 | 1.17 | 1.22
H fixed | 1.82 | 0.971 | 0.859 | 1.14 | 0.933 | 1.39 | 0.967 | 0.973 | 0.913 | 1.04
I fixed | 1.78 | 0.95 | 2.43 | 0.817 | 0.793 | 1.86 | 0.881 | 0.703 | 0.892 | 0.869
K fixed | 0.694 | 0.803 | 0.588 | 1.05 | 0.596 | 0.494 | 0.669 | 0.754 | 0.806 | 1.03
L fixed | 1.18 | 1.15 | 1.76 | 0.826 | 0.911 | 1.06 | 0.867 | 0.707 | 0.801 | 0.849
M fixed | 1.17 | 1.02 | 1.42 | 0.903 | 0.949 | 0.834 | 0.763 | 0.764 | 0.865 | 0.848
N fixed | 0.554 | 1.05 | 0.581 | 0.952 | 0.811 | 1.13 | 1.15 | 1.18 | 0.92 | 1.07
P fixed | 0.495 | 0.925 | 1.1 | 0.96 | 1.48 | 0.883 | 1.26 | 1.07 | 1.12 | 1.13
Q fixed | 1.12 | 1.05 | 0.591 | 1.09 | 0.773 | 0.87 | 1.15 | 1.01 | 1.05 | 0.891
R fixed | 0.761 | 1.04 | 0.871 | 1.26 | 0.822 | 0.487 | 0.857 | 0.774 | 0.929 | 0.958
S fixed | 0.649 | 0.88 | 0.53 | 0.99 | 0.904 | 0.644 | 1.14 | 1.09 | 0.934 | 0.983
T fixed | 0.834 | 0.943 | 0.706 | 0.87 | 0.953 | 0.952 | 1.08 | 1.03 | 0.834 | 0.985
V fixed | 1.65 | 1.02 | 1.65 | 0.868 | 0.776 | 1.37 | 0.909 | 0.756 | 0.775 | 0.797
W fixed | 1.11 | 1.71 | 1.07 | 1.32 | 2.01 | 0.667 | 0.676 | 0.95 | 1.09 | 1.1
pThr fixed | 0.919 | 1.81 | 0.344 | 0.573 | 0.504 | 1.43 | 1.17 | 1.69 | 1.35 | 1.26
pTyr fixed | 2.18 | 2 | 0.413 | 1.16 | 0.73 | 4.18 | 1.59 | 1.89 | 1.48 | 1.4

Source: the supplement of paper PMC11136658
